From publication PMC7644731

Tests used:
Experiment in all cases: double-filter binding
Mini-Ph-ML = details: apparent Kd, n=3; Filter binding: 60 mM KCl, 12 mM Hepes pH 7.9, 0.24 mM EDTA, 4% glycerol, 0.02 nM probe, 1 h at room temperature
Mini-Ph EH = details: apparent Kd, n=5; Filter binding: 60 mM KCl, 12 mM Hepes pH 7.9, 0.24 mM EDTA, 4% glycerol, 0.02 nM probe, 1 h at room temperature
Mini-PhΔSAM = details: apparent Kd, n=4; Filter binding: 60 mM KCl, 12 mM Hepes pH 7.9, 0.24 mM EDTA, 4% glycerol, 0.02 nM probe, 1 h at room temperature
Mini-Ph = details: apparent Kd, n=10; Filter binding: 60 mM KCl, 12 mM Hepes pH 7.9, 0.24 mM EDTA, 4% glycerol, 0.02 nM probe, 1 h at room temperature

Substance: 150-bp DNA probe
- Kd (Mini-Ph-ML): 190 nM
- Kd (Mini-Ph EH): 706 nM
- Kd (Mini-PhΔSAM): 990 nM
- Kd (Mini-Ph): 37 nM
